In the assay the target is T1, GST-CycT1 (UniProt O60563 1-726).
T1 construct: Cyclin T1, cDNA cloned into pGEX-4T-1; also called GST fused CycT1 protein; source: Escherichia coli (DE3), purified
Description: pull-down; GST pull-down: purified GST fused protein as bait and purified His-tag protein; pull-down buffer 150 mM NaCl, 50 mM Tris pH 7.5, 0.1% NP-40, 5 mM DTT; western blot. As to conditions: both partners purified. A general note: Immunoblotting shows a protein as a band on a membrane.

T1 sequence (O60563 whole entry, the tested form may be a part): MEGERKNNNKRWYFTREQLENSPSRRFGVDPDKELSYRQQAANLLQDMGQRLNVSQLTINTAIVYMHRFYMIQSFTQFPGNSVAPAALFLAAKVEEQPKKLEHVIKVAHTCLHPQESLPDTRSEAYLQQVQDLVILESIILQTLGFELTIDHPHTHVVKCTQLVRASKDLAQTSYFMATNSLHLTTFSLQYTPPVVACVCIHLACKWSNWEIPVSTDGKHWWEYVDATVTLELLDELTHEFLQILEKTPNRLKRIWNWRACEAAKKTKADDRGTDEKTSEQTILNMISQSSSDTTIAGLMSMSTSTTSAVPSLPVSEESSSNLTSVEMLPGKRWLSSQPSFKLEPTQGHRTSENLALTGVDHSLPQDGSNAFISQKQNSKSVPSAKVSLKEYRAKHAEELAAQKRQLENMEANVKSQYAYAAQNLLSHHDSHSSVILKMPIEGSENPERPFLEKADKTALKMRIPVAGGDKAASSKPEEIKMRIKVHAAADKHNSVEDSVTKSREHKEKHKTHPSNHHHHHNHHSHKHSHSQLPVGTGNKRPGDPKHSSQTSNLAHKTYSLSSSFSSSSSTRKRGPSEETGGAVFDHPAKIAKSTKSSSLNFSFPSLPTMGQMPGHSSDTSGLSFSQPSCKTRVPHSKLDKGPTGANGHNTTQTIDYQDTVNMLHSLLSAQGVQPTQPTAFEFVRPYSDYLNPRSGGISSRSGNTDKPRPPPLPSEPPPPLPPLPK

B1: His-Menin (natural protein, UniProt O00255 1-610, looked up)
chain: MGLKAAQKTLFPLRSIDDVVRLFAAELGREEPDLVLLSLVLGFVEHFLAVNRVIPTNVPELTFQPSPAPDPPGGLTYFPVADLSIIAALYARFTAQIRGAVDLSLYPREGGVSSRELVKKVSDVIWNSLSRSYFKDRAHIQSLFSFITGTKLDSSGVAFAVVGACQALGLRDVHLALSEDHAWVVFGPNGEQTAEVTWHGKGNEDRRGQTVNAGVAERSWLYLKGSYMRCDRKMEVAFMVCAINPSIDLHTDSLELLQLQQKLLWLLYDLGHLERYPMALGNLADLEELEPTPGRPDPLTLYHKGIASAKTYYRDEHIYPYMYLAGYHCRNRNVREALQAWADTATVIQDYNYCREDEEIYKEFFEVANDVIPNLLKEAASLLEAGEERPGEQSQGTQSQGSALQDPECFAHLLRFYDGICKWEEGSPTPVLHVGWATFLVQSLGRFEGQVRQKVRIVSREAEAAEAEEPWGEEAREGRRRGPRRESKPEEPPPPKKPALDKGLGTGQGAVSGPPRKPPGTVAGTARGPEGGSTAQVPAPTASPPPEGPVLTFQSEKMKGMKELLVATKINSSAIKLQLTAQSQVQMKKQKVSTPSDYTLSFLKRQRKGL
notes: Menin, MEN1 cDNA cloned into pET-22b (+); also called His-tagged Menin protein; recombinant His-Menin protein; source: Escherichia coli (DE3), purified
In the case of B1, the binding result was “binds”.

The record behind these values is paper PMC5424160, “Menin enhances c-Myc-mediated transcription to promote cancer progression” (Nature Communications, 2017).
